{"source": "patent US10155025B2", "about": "“Method for inhibiting or reducing transplant rejection by adminstration of interleukin-34” (INSERM (INSTITUT NATIONAL DE LA SANTÉ ET DE LA RECHERCHE …, priority 2014, dated 2018)", "system": "CD4+CD25- T cells stimulated with allogeneic pDCs", "assay": "MLR: suppression of CFSE-labelled CD4+CD25- T cell proliferation in response to allogeneic pDCs", "format": "cell-based, rat", "conditions": "dose dependent, 0.1 to 2 μg/ml, 6 days of culture", "method": "FIG. 3: Detection of IL-34 using an AAV-IL-34 and inhibition of allo-T cell responses. A. Supernatants of AAV-IL-34 or AAV-GFP-transduced cells were tested for suppression of CD4^+CD25^− T cell proliferation in response to allogeneic pDCs and analysed by flow cytometry for CFSE dilution after 5 days of culture. CD8^+ Tregs were used as positive control of suppression. n=3 in duplicates; Results are expressed as mean±SEM of normalized percentage of proliferation vs. proliferation in the absence of CD8^+ Tregs (100%). […] B. Serial dilution of sera from AAV-IL-34 or AAV-GFP-treated rats or naive animals were tested for suppression of CD4^+CD25^− T cell proliferation in response to allogeneic pDCs and analysed by flow cytometry for CFSE dilution after 5 days of culture. CD8^+ Tregs were used as positive control of suppression. n=3 in duplicates; Results are expressed as mean±SEM of normalized percentage of proliferation vs. proliferation in the absence of CD8^+ Tregs (100%). *, p<0.01; **, p<0.001; ***, p<0.0001 vs. sera from naïve animals.\nFIG. 6: M-CSF mediated dose dependent suppression of anti-donor effector CD4^÷CD25^− T cells responses. (A) FACS Aria-sorted CD8^+CD45RC^low Tregs from spleen of naive or 120 days old AdCD40Ig-treated recipients (n=6) were analysed for M-CSF mRNA expression by quantitative RT-PCR. *p<0.05. […]"}
{"molecule": "M-CSF: M-CSF protein (ab56288, ABCAM), macrophage colony stimulating factor (protein, UniProt Q8JZQ0 33-566, looked up) Macrophage colony-stimulating …: EVSEHCSHMIGNGHLQILQQLIDSQMETACLIEYKFVDQEQLDDPVCYLKKAFVLVQVIIEETMRFKDNTPNANATERLQELSMKLNSCFIKDYKEQNEACVQTYKESPLRLLEKIKNFFNETKNFLEKDWNIFSKNCNDSFAKCSSRDVVTKPDCNCLYPKATPSSDLASASPHQPPAPSMAPLADLAWDDSQRTEGSSLLPSDLPLRIEDPGSAKQRPPRSTCQTLESTEQPNHEDPQPHPSAGAPIPGVEDIIESSMGTNWVLEEASGEASEGFLTQERKFSPSNPVGGSIQAETDRPWARSASSPFPKLTEDQQPTNITDTPLTEVNPMRPTGQTLNNTPEKTDGSSTLREDQQEPRSPHFATLNPQRVGNSATPYAKLLPPKSHSWGIVLPLGELEGKKSTRDRRSPAELKGGPASEGAARPVAQSTRDRRSPAELKGGPASEGAARPVARFNSIPLTDTGSSIQDPQTSAFVFWVLGIILVLLAVGGLLFYSWKRRSHRDPRTLDSSVGRPEGSSLAQDEDRQVELPV", "values": [{"measurement": "suppression of CD4+CD25- T cells proliferation", "value": "up to 93.5%"}]}
